Measured values: the DeepSol protein solubility set

Assay: soluble on expression in E. coli; label from the status in PepcDB or PDB records

| Sequence | soluble on expression in E. coli |
| --- | --- |
| MVETPPAWVLLKRARERIYTLPPDFPGFRARLGLCLDGVWYVGAVEAEGFAPKTLGLFGEAGAIAEKELGSLLGHRRPAPFEEGEGRYPMRLFAEGPLGTGIALEDPFRSRIWVKEGRLALIERHLPEGSFRIHLETWREVGERLLPHRFLLVHRDPRGHLLKVERFRDEYAQVGPYWLPVEREVVVEGEGLGVLVLRLEEVEVKG | soluble |
| MGSDKIHHHHHHMLDKRAQILLKTLIEHYISDGQPVGSRKLSVASGLDLSPASIRNIMSELEDHGFIASPHTSAGRIPTQRGYRLFVDTLLTVQPLQNQEIRKLENVLSSPDPQELINKAAELLSSLTHFAGLVMIPKRQGAAFRHLEFLPLSEKRILVIIVTTDGAVQNRIILAEKPYSASDLTQASNFFNQHYAGNTLDEVKQKLHEELKQMQSDMTRLMAAALEASSKTADNKDGVVIAGKRNLLDVQDLSTNVSSLRKLFEMFEHRTSLMQLLDQSQKASGVQIFIGGESGYLPLDECSMVTAPYETNGQTIGTLGVIGPTRMAYERVIPIVDITAKLLSNALSNNH | not soluble |
| MSLYLFGESDHYLWLPRGLLYPLQDKFKQVSVEDRRKVQRSISVEFKGELTFEQELALSDMTSKENGLLHAETGFGKTVLGAALISERKTKTIILVHNKQLLDQWLDRLNCFLTFEEEEAIRYTASGREKVIGYVGQYGGTKKWLSKLVDVVMIQSLFKLENSQSLLDEYEMMIVDECHHVSALMFEKVVAQFRGKYLYGLTATPERKNGHEPIVFQRIGEILHTADKREGHHHHHH | not soluble |
| MSLPFTTILRMSRSRLVKQKGNKKRMTTVVSNAREIAAIDLGSNSFHMVVAKVVDQDLQLISRHKQRVRLAAGLDEQKNLDEESIQRGLECLAMFAERLQGFEPRNVRIAATHTLRQARNANLFIQRALDVLPFPIEIIPGSEEARLIYLGVAHTQPQADSMLVVDIGGGSTEMIIGKGFEAELLNSKQMGCVNFTERYFANGKLSRKNFAQAIVASEQKLESIASKYRKKGWQMAFGSSGTIKAIHEVLIGQGHEDGLITFERLSKLIEKLCEWDSIDDLQLPGLTDDRKPVFAAGVAILSAIFHGLNIKEMHFSDGALREGLLYEMEDRFKYSDIRLRTTENLAAKHLVDLEHAAKVKGHAREFLAQVANELGLPEGSELCDLLEWGALLHEVGLSINLQGFHRHSAYILRHNNMAGFNSEQQLVLSNLARFQRKSLKLNELDDFSLFKKKHIIGLIRVLRLAIVVNGQRNDDPLPPLTLSAKDDEWRLECEQPDWLENNKLLHADLQTEQEYWREVGWQLLFEGHHHHHH | not soluble |
| MIKSSSKIGLAFFVRPQFDVDLAKNFFNKVQDSLKEAGIATQVFELPVSTDAEALSLAESVNSHQDLHGLIVVQGTFCDASLILNLASNINLPIMIWATKEQPTGGRLSLNSFCGLNLGAHTLVNAGIKFKGVYGSPGSPAVIKKVTSFARAAGAVKWLKGKRIGLFGHRPSGYYPSNFNEILLRKQFGITVEYLSLSEVFSLAQKMEIKDIQPFINTLVGVEGLEMVSTSKSVQAYLALKELIAQKALDAVAVECWPEFMAGFGGAVCYALSRLNDEGIVAACEADVNGAVTMLLGSYLSSQANFIADLVGAEEEQNQLIFWHCGNGPLSLAAPGTNPVAGVHPNRKTPLAMYFPLKGGPVTVSRLSSDHNGNLRLFLGSGTGIETDLLYSGNSLPIQISGSVEETLDTILCEGIEHHYIVTYGDLTSEFREIAELLGLRMITF | not soluble |
| MGSDKIHHHHHHMGYRTLKSIFHEHNESKMKEEYTKRFNSLASFNTNINIIPMENGKKVNDLEYPLFFMVTKNLSKKQELISINSRKIDRALNSLPYAAREQYFNDLLIDELQSTNEIENVFSTKQEIAHALNNQASEFLKFRGLVDQYKEIELNKKIKVDNVRDIRAIYDKLVSNEINEQDKLDGELFRKNFVGVHDGSTNKYIHVGLQPETKIVEYIGEMLTFLKYFDAPQPFKIMASHYLFEYIHPFYDGNGRVGRFIIAKLLSDYYDNYTALTFSYVINRNKSKYYKAFMTASNHLNCGDLTEFIDTMLELLIAGQERILDELIPKMDATEKLTLYLTSHYKQIDYEFLYLLSMDKLFGNKRNRLTLIDLENILGVGRVKINNTIKKYDNYLVKIKSRPIIYEISDEFLNSIIK | not soluble |
| MKIGIVGLGRVGSSTAFALLMKGFAREMVLIDVDKKRAEGDALDLIHGTPFTRRANIYAGDYADLKGSDVVIVAAGVPQKPGETRLQLLGRNARVMKEIARNVSKYAPDSIVIVVTNPVDVLTYFFLKESGMDPRKVFGSGTVLDTARLRTLIAQHCGFSPRSVHVYVIGEHGDSEVPVWSGAMIGGIPLQNMCQVCQKCDSKILENFAEKTKRAAYEIIERKGATHYAIALAVADIVESIFFDEKRVLTLSVYLEDYLGVKDLCISVPVTLGKHGVERILELNLNEEELEAFRKSASILKNAINEITAEENKHQNTSG | soluble |
| MAHHHHHHMRQTGSFQPFFLRGKVVHGKGRGGSQLGFPTANIGLDKDVMECLQPYKNLVVYGWGTVSQVPGKERESFGPYPFAASIGFNMQFDEKTLTVEPYFLHEFGWDFYGAVVKIIVLGEIRSMGSFHSLQALVDTIKSDVQFTRDMLQKPQLQEFSRHSLFESPSSTIPYFEDLPDE | soluble |
| MGHHHHHHSHMIRINEIKLPLDHEEGALLDAITKKLGIPAEKVISFNVFRRGYDARKKTNIHLIYTLDIIVEGDETALLAKFANDPHVRQTPDMEYKFVAKAPENLTERPIVIGFGPCGLFAGLVLAQMGFNPIIVERGKEVRERTKDTFGFWRKRTLNPESNVQFGEGGAGTFSDGKLYSQVKDPNFYGRKVITEFVEAGAPEEILYVSKPHIGTFKLVTMIEKMRATIIELGGEIRFSTRVDGLHMEDGQITGVTLSNGEEIKSRHVVLAVGHSARDTFEMLHERGVYMEAKPFSVGFRIEHKQSMIDEARFGPNAGHPILGAADYKLVHHCKNGRTVYSFCMCPGGTVVAATSEEGRVVTNGMSQYSRAERNANSAIVVGISPEVDYPGDPLAGIRFQRELESNAYKLGGENYDAPAQKIGDFLKGRDPSQLGDVEPSFTPGIKLTDLSKALPPFAVEAIREAIPAFDRKIKGFASEDGLLTGVETRTSSPVCIKRGKDFQSVNLKGFYPAGEGAGYAGGILSAGIDGIKVAEAVARDIVAAMENA | soluble |
| GIEIVNRKAVWYLTSEIKETETGIEVSAGELHKGDEEVFPVEEVSFDLTPDDTYPVEYMLYLHMNVQTKKVSWSLCKAYLDGEGYCDYQGNERLIMYPVSVTVFPNGTREGTIFLYEKEDREPDRKPPVIVEPQPVGEIGTPDIDE | soluble |
| MVCIAAKCGNECSQCKHCHYALEQMSALAQGEKTSGLCPKLETCVFNCLTEDVSKVLSCVATRCNVHCYDGDCPSCKMISRRIFSNICKQHSMTTQPQIKYEGTCPNLFMELADDYVAMKKKKL | not soluble |
| MYGEGDFYTIKSKRDYEFYLEADRLALGKNCKKPRLIGDDIWKFQRLLRQAEYYSNCQNSLLHKLYLKYILFRFHRMSIRLGFSIPINVFGPGLCIAHRGTIVVNKGARVGENCRIHACTNIGSGRDNIFLAPKIGNGVYIGPGAKIFGSVEIADNIAIGANSVVNRSFYERGISIAGVPAKKISNKGSDGMVIAATKTVSVPVSQETILEHHHHHH | soluble |
| MGQMFGVACIDEQSGIVGQAWNNNSVRYISIDEDAVITIQSGPVVGKVAVSNDKTLAYGATINGANTVYVYKKSQAWVPSRLSDISSGTDVWAVALNGDNQWLYYVTANGRLGRIEVDNPTHNEILFEHNDFSGGPFAYIAYSAFEDCFYVTTDKNKILKVWVKEDGTHAYEQINQNNTGTTDGFLADEAKFQYLRGLTIDEDGNIFVCQGDNSHVIRKIAYDENMEKRYVTTVLGTSTVHGTDDGSPDIALFNGPQDISYDGNGGYWIAMRYEPALRKYSIELEHHHHHH | not soluble |
| MNYRNKAFLKYEEDYFIERIIKALKDYEEIIIISNNPEEYKEFGLKVFKDIYPSQGPLSGIHSALNHIKNDYCLVVACDMPFINKDVVNYLGNIKEDYEILIPKFQERLQPLCAIYKKSCKDIMEKELINNSNKLIKTCFKFSMKVVEEFPFIEKVHKKEIKNFYNINTVDEYEDLIKKKEILEHHHHHH | not soluble |
| MKNKSLLLAVAISATLLAGCKNGVNGNLIASSGMSTYKAATLSDADVKALSNNACKQMDSENQLAGSKSKYTKRLSKIAKALGNNIDGTPVSYKVYMTSDINAWAMANGCVRVYSGLMDLMTDNEIEGVLGHELGHVSLGHSRKAMQTAYATLAARDAISATSGVAAQLSQSQLGDLAEGVINSAFSRSQESDADDFSYDLLKKRGINTQGLVTAFDKFATMDAGHAKSLMDSHPASADRAQHMRDRIAEDKKLEHHHHHH | not soluble |
| MVSTYDEIEIEDMTFEPENQMFTYPCPCGDRFQIYLDDMFEGEKVAVCPSCSLMIDVVFDKEDLAEYYEEAGIHPPEPIAAAA | soluble |
| MGSDKIHHHHHHMTWVGVVDAGRHVEATMKLELGFDPRDLLRKLGPGNSIAKFAKNQTIFAQGDEADSVYLLLQGRIKVVVLSAQGKEAATGMVAPGQFFGDGCLVGEATRTTTTIAMQDCLVAAIPSTRLIETLRAQPDFAELFVRHLLLRNRRIEEDLLDQLLNCSEKRLARLLLRLADFEEGGEPQPIAPHISQETLAEMIGTTRSRVSYFMNKFRKLGLISYDRTIEVHPGRLSAVLHDRAEARG | not soluble |
| MGSDKIHHHHHHMSLFAALRLPREILFGKGQRHALSTVAGRFGRHALVCTDERFAGTAVFAEIVQSLQAASIEVLVHDRVLPDVPRDSVGICVDEAEKFQPEMVIGIGGGSCLDFAKCADLLLSHGGKLQDYYGEFKVPGPTLPLIAVPTTAGTGSEVTPVAVISDPDRTLKVGISSPYLIAAVALCDPELTMTCPPALTAIAGADALTHAIEAFTAKQRGEDPSLAQQHVFIGKTALTDHFALLAIKLLGRSLEKACTDGTDADARADVMMGALAAGCAFGTAGTAAAHAVQYPAGALTHTAHGLGVATMMPYVMTYNSRVVAAEMAEIGDALGLEAKGRSAEEMADATIKEIRRLFTAIGITPTLADLGLPADKLDWTADQALGIDRLIKNNPRPFDLTAMRRLVQAAHDGDLAACAM | not soluble |
| MLMLEREKLARLIKKRSLKVADEPVFKLSSGKLSRYYVDLKQITFDPEGDYLIGKAMYELVKEFNPDACGGLTLGADPIAYAIAFVSLMDSNPIKPFVVRKEPKGHGMKRQIEGLLNPGERVAVLEDVVTTGSSALKAVKACREYGLEVIGVFAVVDREEGGRENIEKEGIPLYSLFKLSELL | soluble |
| MGSDKIHHHHHHVTPLPIVDPGPPVLYDVEHVTSYRYALPVTVSHQCAHLKPRSFATQQVLSTQLGATPLPEIRSERIDYFGNTVTSFSLSEPHESLTVVAQSQVRILPPTLPAAADTPRWEEVAERLRLGFGADTLDACQMLYPSGHVKTLPEVRAYALPSFPPDRPILEAAIDLTGRIHADFTYDPTATTVATPLAEVLAKRRGVCQDFAHLQIACLRSMGLAARYVSGYVLTCSTESGERLEGGDASHAWVSLYVPCAAAPNGGWIDLDPTNDKLITREHVTVAWGRDFEDVSPIKGVMLGGGAQTVSVAVTLRPRTNGPRARTESPA | not soluble |
| MGHHHHHHSHEELGLKVGLEIHRQLDTKKLFSPVPTKFSDEVDFTFQRRLRPTMSELGEVDPAALEEFKKGRVFIYEGNYQLTDLVYMDEEPPRGPDKEALEVALQIAYLLNAKPVDEVYYMRKIVIDGSNVSGFQRTAIIATDGKVETPWGTVGIPTICLEEDAARIIERKEKEVIYRLDRLGVPLVEISTTPDIHHPEQAKVVAKFIGDALRATRKVKRGLGTIRQDLNVSIKGGARIEIKGVQELDMIPLIIEREVERQLNLLKIR | not soluble |
| MRILVSCANGSGTSLMMMRSVEKAMKELGVPITKIHHCAISEGKSSASQYDVVFTPVNFLQMFQQAEKRGVTVIGIKNVMSAKEIQEKYMASDRYQKSE | not soluble |
